Experimental data published in the supplement of paper PMC10724198.
± gives the standard deviation of the averaged measurements.

Tested on: Saccharomyces cerevisiae
Assay: protein stability index of tFT-peptide fusion (C-terminal peptide) (PSI (0-1 scale)); higher = more stable (slower turnover)
Settings: genetic background: wild type; temperature: 30 C
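Note: PSI is a weighted mean of sequencing reads over stability bins, variants kept only with over 10 reads, mCherry proximal and sfGFP distal, peptide attached via GGGS linker.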

Sequence | protein stability index
PPGSSPPPVLSL | 0.703 ± 0.022
PPHGRKRRGKEP | 0.776 ± 0.16
PPHHLPPGPPHP | 0.72 ± 0.078
PPHLFLPSSMPF | 0.693 ± 0.015
PPHPPPPSPALL | 0.74 ± 0.01
PPHPPPRLPPPP | 0.724 ± 0.043
PPHRRTPQRRCP | 0.701 ± 0.013
PPIPPSAPLCPP | 0.688 ± 0.014
PPIPYIVPPSYT | 0.657 ± 0.015
PPITKKITRNTA | 0.676 ± 0.014
PPIWYAKHRPAP | 0.6904 ± 0.0069
PPLCPPLQPPLI | 0.639 ± 0.02
PPLFRPPASAPR | 0.715 ± 0.018
PPLLPLPPRPLL | 0.728 ± 0.044
PPLLPPPPQLLL | 0.679 ± 0.028
PPLLPPPVPPVP | 0.727 ± 0.07
PPLMLPSTPSSS | 0.704 ± 0.095
PPLPAPGPIFLP | 0.652 ± 0.037
PPLPGHPCLWPT | 0.649 ± 0.057
PPLPLPGPDHHL | 0.731 ± 0.087
PPLPLPPSRSPA | 0.686 ± 0.026

Sequence | protein stability index
PPLPLPSPRPPP | 0.619 ± 0.0092
PPLPPAPPPPPH | 0.697 ± 0.056
PPLPPLCRPLPP | 0.685 ± 0.1
PPLPPLPSPSPP | 0.721 ± 0.092
PPLPPPLRPPPS | 0.685 ± 0.026
PPLPPPTSPPRP | 0.69 ± 0.038
PPLPPSPSVSPR | 0.746 ± 0.021
PPLPSPLCPQPP | 0.714 ± 0.032
PPLQRFSYRPGR | 0.754 ± 0.069
PPLSLPLCLSPL | 0.6838 ± 0.0035
PPPAPDRATIRR | 0.673 ± 0.068
PPPAPFSPLPPP | 0.7184 ± 0.002
PPPAPPPPPPLP | 0.7026 ± 0.0022
PPPAPPPPPPPP | 0.693 ± 0.068
PPPAPPPPPTFL | 0.688 ± 0.019
PPPAPPSPLLSR | 0.685 ± 0.1
PPPFPSPLPPPP | 0.678 ± 0.0097
PPPHPLPRPLPT | 0.853 ± 0.051
PPPHPPPRLPSP | 0.604 ± 0.078
PPPHPTPPLTSP | 0.702 ± 0.058
PPPHSPVPPSQS | 0.68 ± 0.022

Sequence | protein stability index
PPPLAPPSVPCS | 0.604 ± 0.053
PPPLFLSPFPPR | 0.727 ± 0.015
PPPLHPTTLPQP | 0.733 ± 0.017
PPPLLPAPGSTI | 0.662 ± 0.0079
PPPLLPASFHLP | 0.629 ± 0.0082
PPPLPPPAPPPP | 0.658 ± 0.025
PPPLPPPLPPPL | 0.705 ± 0.05
PPPLPRHLRAPP | 0.689 ± 0.018
PPPLPVFPRPPP | 0.682 ± 0.012
PPPLSLLPAPPA | 0.6953 ± 0.0021
PPPLSLSCPFRP | 0.712 ± 0.052
PPPLSPSTSDHP | 0.652 ± 0.019
PPPNPPPALPPL | 0.664 ± 0.047
PPPPAAFFPRSP | 0.827 ± 0.11
PPPPAPPVPLPL | 0.693 ± 0.016
PPPPASSFSPPR | 0.7366 ± 0.0054
PPPPAVPPSPPP | 0.645 ± 0.012
PPPPFSPAHLPH | 0.6993 ± 0.0042
PPPPHYPHHTAS | 0.738 ± 0.029
PPPPLSAPPFSS | 0.697 ± 0.051
PPPPLYPQPPPT | 0.705 ± 0.025

Sequence | protein stability index
PPPPPFLPPTPP | 0.622 ± 0.041
PPPPPLPLPLPS | 0.728 ± 0.066
PPPPPLPPPSPF | 0.734 ± 0.06
PPPPPPLPSLPR | 0.678 ± 0.089
PPPPPPPAPPLP | 0.648 ± 0.044
PPPPPPPHSPPS | 0.664 ± 0.035
PPPPPPPLPPFT | 0.681 ± 0.015
PPPPPPPPALSS | 0.7163 ± 0.0034
PPPPPPPPHLLP | 0.658 ± 0.027
PPPPPPPPPSSP | 0.701 ± 0.057
PPPPPPPRALNL | 0.687 ± 0.038
PPPPPPPTSRPP | 0.644 ± 0.03
PPPPPPTPAPPP | 0.711 ± 0.044
PPPPPQSRASSP | 0.738 ± 0.022
PPPPPRPFLPPP | 0.654 ± 0.058
PPPPPRPLPPLP | 0.695 ± 0.043
PPPPPSPAPSLR | 0.723 ± 0.052
PPPPPSSPPASP | 0.653 ± 0.03
